Source: paper PMC3074190 (Molecular carcinogenesis, 2010)
One block for each binder: values may come before it.

How the values were obtained:
[1] = target: β-catenin bait (BD fusion) (human) (UniProt P35222); assay: two-hybrid
GST-β-catenin-S37A = target: T1, GST-β-catenin-S37A (human, UniProt P35222 1-781, S37A); assay: pull-down
T1 sequence (looked up): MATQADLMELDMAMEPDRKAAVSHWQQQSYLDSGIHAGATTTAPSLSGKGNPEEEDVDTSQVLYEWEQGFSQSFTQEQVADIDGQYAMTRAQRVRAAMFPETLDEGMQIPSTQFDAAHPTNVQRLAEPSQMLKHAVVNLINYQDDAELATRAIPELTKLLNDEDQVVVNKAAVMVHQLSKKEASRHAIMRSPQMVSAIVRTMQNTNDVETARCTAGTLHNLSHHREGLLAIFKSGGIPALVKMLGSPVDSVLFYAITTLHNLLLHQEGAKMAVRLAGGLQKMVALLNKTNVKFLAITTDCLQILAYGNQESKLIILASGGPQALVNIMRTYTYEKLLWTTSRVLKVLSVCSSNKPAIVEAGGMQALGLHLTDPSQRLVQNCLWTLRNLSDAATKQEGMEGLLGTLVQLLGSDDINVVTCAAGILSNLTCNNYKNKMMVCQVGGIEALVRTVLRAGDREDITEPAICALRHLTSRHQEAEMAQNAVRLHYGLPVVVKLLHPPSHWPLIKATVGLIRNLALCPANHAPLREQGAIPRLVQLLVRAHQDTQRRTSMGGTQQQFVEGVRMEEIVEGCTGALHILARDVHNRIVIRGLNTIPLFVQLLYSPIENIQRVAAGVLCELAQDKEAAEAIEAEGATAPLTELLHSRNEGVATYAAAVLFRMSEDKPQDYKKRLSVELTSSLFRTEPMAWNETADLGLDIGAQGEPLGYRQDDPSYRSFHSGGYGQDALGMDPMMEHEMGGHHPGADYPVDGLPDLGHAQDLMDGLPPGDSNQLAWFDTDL

- fold increase of the two-hybrid signal with 1,25D over vehicle [1]: 12 fold
- fold increase of the two-hybrid signal with LCA over vehicle [1]: 8 fold
B1: VDR prey (AD fusion), wild type (natural protein)
chain: MEAMAASTSLPDPGDFDRNVPRICGVCGDRATGFHFNAMTCEGCKGFFRRSMKRKALFTCPFNGDCRITKDNRRHCQACRLKRCVDIGMMKEFILTDEEVQRKREMILKRKEEEALKDSLRPKLSEEQQRIIAILLDAHHKTYDPTYSDFCQFRPPVRVNDGGGSHPSRPNSRHTPSFSGDSSSSCSDHCITSSDMMDSSSFSNLDLSEEDSDDPSVTLELSQLSMLPHLADLVSYSIQKVIGFAKMIPGFRDLTSEDQIVLLKSSAIEVIMLRSNESFTMDDMSWTCGNQDYKYRVSDVTKAGHSLELIEPLIKFQVGLKKLNLHEEEHVLLMAICIVSPDRPGVQDAALIEAIQDRLSNTLQTYIRCRHPPPGSHLLYAKMIQKLADLRSLNEEHSKQYRCLSFQPECSMKLTPLVLEVFGNEIS

- band intensity with GST-β-catenin, fold over GST-only control (GST-β-catenin-S37A): 7.1 fold
B2: VDR Δ1–88, N-terminally truncated VDR, 35S-methionine labelled (domain or fragment, human, UniProt P11473 89-427, looked up)
chain: MMKEFILTDEEVQRKREMILKRKEEEALKDSLRPKLSEEQQRIIAILLDAHHKTYDPTYSDFCQFRPPVRVNDGGGSHPSRPNSRHTPSFSGDSSSSCSDHCITSSDMMDSSSFSNLDLSEEDSDDPSVTLELSQLSMLPHLADLVSYSIQKVIGFAKMIPGFRDLTSEDQIVLLKSSAIEVIMLRSNESFTMDDMSWTCGNQDYKYRVSDVTKAGHSLELIEPLIKFQVGLKKLNLHEEEHVLLMAICIVSPDRPGVQDAALIEAIQDRLSNTLQTYIRCRHPPPGSHLLYAKMIQKLADLRSLNEEHSKQYRCLSFQPECSMKLTPLVLEVFGNEIS
modifications: 35S-methionine labelled

- band intensity with GST-β-catenin, fold over GST-only control (GST-β-catenin-S37A): 8.3 fold
B3: human vitamin D receptor, full-length wild type (F/M4 allele), 35S-methionine labelled (natural protein, UniProt P11473 4-427, looked up)
chain: MAASTSLPDPGDFDRNVPRICGVCGDRATGFHFNAMTCEGCKGFFRRSMKRKALFTCPFNGDCRITKDNRRHCQACRLKRCVDIGMMKEFILTDEEVQRKREMILKRKEEEALKDSLRPKLSEEQQRIIAILLDAHHKTYDPTYSDFCQFRPPVRVNDGGGSHPSRPNSRHTPSFSGDSSSSCSDHCITSSDMMDSSSFSNLDLSEEDSDDPSVTLELSQLSMLPHLADLVSYSIQKVIGFAKMIPGFRDLTSEDQIVLLKSSAIEVIMLRSNESFTMDDMSWTCGNQDYKYRVSDVTKAGHSLELIEPLIKFQVGLKKLNLHEEEHVLLMAICIVSPDRPGVQDAALIEAIQDRLSNTLQTYIRCRHPPPGSHLLYAKMIQKLADLRSLNEEHSKQYRCLSFQPECSMKLTPLVLEVFGNEIS
modifications: 35S-methionine labelled
